In article PMC4357434:

Experiments:
[1] = molecular target: RFP-tubulin (TagRFP-labeled α-tubulin) (UniProt P68363); assay: FRET or BRET; FRET-iMSD (spatiotemporal image correlation of the FRET signal), TIRF time series at 10 ms resolution, about 60 s, live co-transfected CHO cells, basal condition; characteristic time of binding τb from the fit of G(0,τ)
[2] = molecular target: TRPV1-RFP (Transient Receptor Potential Vanilloid 1 fused at its C-terminus to TagRFP) (UniProt O35433); assay: FRET or BRET; acceptor photobleaching FRET in TIRF mode on live co-transfected CHO cells; acceptor bleached at 561 nm; apparent FRET percentage E pb after Stepensky
UniProt O35433, sequence (O35433 whole entry, the tested form may be a part): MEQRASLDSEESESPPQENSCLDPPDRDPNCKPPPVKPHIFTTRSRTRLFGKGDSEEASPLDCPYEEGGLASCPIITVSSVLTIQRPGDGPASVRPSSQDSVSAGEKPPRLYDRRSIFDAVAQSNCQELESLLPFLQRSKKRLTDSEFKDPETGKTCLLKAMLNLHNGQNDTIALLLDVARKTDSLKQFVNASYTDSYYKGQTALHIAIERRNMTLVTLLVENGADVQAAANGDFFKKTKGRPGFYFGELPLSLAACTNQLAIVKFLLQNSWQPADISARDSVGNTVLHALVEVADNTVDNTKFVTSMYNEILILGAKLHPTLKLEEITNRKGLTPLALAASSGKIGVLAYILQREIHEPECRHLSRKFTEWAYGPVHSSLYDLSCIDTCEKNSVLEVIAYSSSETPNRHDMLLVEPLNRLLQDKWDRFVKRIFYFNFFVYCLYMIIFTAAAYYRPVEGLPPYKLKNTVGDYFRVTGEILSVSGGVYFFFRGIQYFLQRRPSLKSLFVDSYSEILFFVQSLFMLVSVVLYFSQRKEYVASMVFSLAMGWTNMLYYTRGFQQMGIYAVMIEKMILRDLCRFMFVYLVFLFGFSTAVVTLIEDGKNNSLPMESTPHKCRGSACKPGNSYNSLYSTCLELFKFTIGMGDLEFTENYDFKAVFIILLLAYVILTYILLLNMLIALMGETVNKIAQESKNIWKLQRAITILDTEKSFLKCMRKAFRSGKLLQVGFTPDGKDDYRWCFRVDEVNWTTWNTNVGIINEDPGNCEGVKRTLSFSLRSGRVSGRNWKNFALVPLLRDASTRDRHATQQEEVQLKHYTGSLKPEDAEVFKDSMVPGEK

[3] = molecular target: TRPV1-RFP (Transient Receptor Potential Vanilloid 1 fused at its C-terminus to TagRFP) (UniProt O35433); assay: FRET or BRET; sensitized emission FRET (SE-FRET) imaged in TIRF mode on the membrane of live CHO K1 cells co-transfected with donor- and acceptor-fused proteins; bleed-through corrected; donor-normalised apparent FRET efficiency E D; 37°C
[4] = molecular target: TRPV1-RFP (Transient Receptor Potential Vanilloid 1 fused at its C-terminus to TagRFP) (UniProt O35433); assay: FRET or BRET; FRET-iMSD (spatiotemporal image correlation of the FRET signal), TIRF time series at 10 ms resolution, about 60 s, live co-transfected CHO cells, basal condition; characteristic time of binding τb from the fit of G(0,τ)

UniProt P68363, sequence (P68363 whole entry, the tested form may be a part): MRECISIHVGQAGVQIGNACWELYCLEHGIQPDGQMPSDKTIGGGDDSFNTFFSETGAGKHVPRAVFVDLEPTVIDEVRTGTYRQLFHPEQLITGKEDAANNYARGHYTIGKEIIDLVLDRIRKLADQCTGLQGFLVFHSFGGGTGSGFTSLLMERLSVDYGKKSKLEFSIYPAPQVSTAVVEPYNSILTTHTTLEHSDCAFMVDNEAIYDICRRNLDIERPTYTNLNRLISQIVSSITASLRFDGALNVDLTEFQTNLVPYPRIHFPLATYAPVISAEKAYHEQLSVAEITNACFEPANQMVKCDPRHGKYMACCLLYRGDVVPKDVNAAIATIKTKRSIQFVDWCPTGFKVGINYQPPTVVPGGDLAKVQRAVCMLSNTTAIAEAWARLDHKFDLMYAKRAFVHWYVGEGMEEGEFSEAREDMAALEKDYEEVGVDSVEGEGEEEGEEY

τb (characteristic time of binding) [1] [s]	apparent FRET percentage E pb (acceptor photobleaching) [2] [%]	τb (characteristic time of binding) [4] [s]	Molecule	apparent FRET efficiency E D [3] [%]
> 60			TRPV1-EGFP (from UniProt O35433 1-838) (receptor)	
	11	16.4	Caveolin-1-EGFP (natural protein) MSGGKYVDSEGHLYTVPIREQGNIYKPNNKAMAEEMSEKQVYDAHTKEIDLVNRDPKHLNDDVVKIDFEDVIAEPEGTHSFDGIWKASFTTFTVTKYWFYRLLSALFGIPMALIWGIYFAILSFLHIWAVVPCIKSFLIEIQCISRVYSIYVHTFCDPFFEAVGKIFSNIRINMQKET	4
			Caveolin-1-YFP (natural protein) MSGGKYVDSEGHLYTVPIREQGNIYKPNNKAMAEEMSEKQVYDAHTKEIDLVNRDPKHLNDDVVKIDFEDVIAEPEGTHSFDGIWKASFTTFTVTKYWFYRLLSALFGIPMALIWGIYFAILSFLHIWAVVPCIKSFLIEIQCISRVYSIYVHTFCDPFFEAVGKIFSNIRINMQKET	30
